Laboratory results published in article PMC13270198.
pKd, pKi: −log10 of the molar value. Several values for one entry are separate records, joined by “and”; a condition that tells them apart may be missing. Identical values can stand only once.

Legend:
[1] = tested on: Cas12a2 (SuCas12a2) (Sulfuricurvum sp. PC08-66); assay: competition (cleavage inhibition); settings: phosphorothioate (non-cleavable); Fluorescence anisotropy: 25 mM HEPES pH 7.2, 150 mM KCl, 2 mM MgCl2, 5 ug/ml BSA, 10 nM probe, read at 30 min; temperature not stated
[2] = tested on: Cas12a2 (SuCas12a2) (Sulfuricurvum sp. PC08-66); assay: fluorescence anisotropy; settings: phosphorothioate (non-hydrolyzable); Fluorescence anisotropy: 25 mM HEPES pH 7.2, 150 mM KCl, 2 mM MgCl2, 5 ug/ml BSA, 10 nM probe, read at 30 min; temperature not stated

Substance	pKi [1]	pKd [2]
PT-ssDNA inhibitor	6.92 and 7.05 and 7.30	–
PT collateral ssRNA	–	8.17 and 7.43 and 7.72
PT-ssRNA inhibitor	6.21 and 6.96	–
